Laboratory results: patent US20070134256A1 (US Dept. of Health and Human Services, published 2007)
Where two headings read alike, the source gives them in different places.

What was measured:
[1] = molecular target: T1, dengue type 4 virus (DENV-4), strain 814669, virions (dengue type 4 virus, UniProt P09866 280-774; P09866 114-279); assay: cell-based or functional assay
[2] = molecular target: T2, dengue type 1 virus (DENV-1), Western Pacific strain, virions (dengue type 1 virus, UniProt P17763 281-775; P17763 115-280); assay: cell-based or functional assay
[3] = molecular target: T3, dengue type 2 virus (DENV-2), prototype New Guinea C strain, virions (dengue type 2 virus, UniProt P14340 281-775; P14340 115-280); assay: cell-based or functional assay
[4] = molecular target: T4, dengue type 3 virus (DENV-3), strain H87, virions (dengue type 3 virus, UniProt P27915 281-773; P27915 115-280); assay: cell-based or functional assay
[5] = molecular target: T5, DENV-2 antigenic variant NGB-V1 (dengue type 2 virus); assay: cell-based or functional assay
[6] = molecular target: T1, dengue type 4 virus (DENV-4), strain …; assay: cell-based or functional assay; remark: listed apart in the source
[7] = molecular target: DENV-2 New Guinea C (NGC) parent virus, mouse-adapted (dengue type 2 virus, UniProt P14340 281-775); assay: cell-based or functional assay
[8] = molecular target: DENV-2 NGB-V2/DENV-4 chimera (dengue type 2 virus); assay: cell-based or functional assay
[9] = molecular target: T6, DENV-2 antigenic variant NGB-V2 (dengue type 2 virus); assay: cell-based or functional assay
[10] = molecular target: T7, DENV-4 mutant containing Leu107Phe (dengue type 4 virus, UniProt P09866 280-774); assay: cell-based or functional assay
WNV/DENV-4 chimera = WNV/DENV-4 chimera (West Nile virus); assay: cell-based or functional assay
[11] = molecular target: chimeric DENV-2 (NGB-P)/DENV-4 (dengue type 2 virus); assay: cell-based or functional assay
[12] = molecular target: DENV-2 NGB-V1/DENV-4 chimera (dengue type 2 virus); assay: cell-based or functional assay
[13] = molecular target: T1, dengue type 4 virus (DENV-4), strain …; assay: ELISA Kd
[14] = molecular target: T7, DENV-4 mutant containing Leu107Phe; assay: ELISA Kd
[15] = molecular target: T1, dengue type 4 virus (DENV-4), strain …; assay: ELISA, virion-coated plate, Fab from ~140 µg/ml
[16] = molecular target: T2, dengue type 1 virus (DENV-1), Western …; assay: ELISA, virion-coated plate, Fab from ~140 µg/ml
[17] = molecular target: T3, dengue type 2 virus (DENV-2), prototype …; assay: ELISA, virion-coated plate, Fab from ~140 µg/ml
[18] = molecular target: T4, dengue type 3 virus (DENV-3), strain …; assay: ELISA, virion-coated plate, Fab from ~140 µg/ml
[19] = molecular target: T5, DENV-2 antigenic variant NGB-V1
[20] = molecular target: T6, DENV-2 antigenic variant NGB-V2
[21] = molecular target: T5, DENV-2 antigenic variant NGB-V1; assay: ELISA Kd against parental DENV-2 NGB
[22] = molecular target: T6, DENV-2 antigenic variant NGB-V2; assay: ELISA Kd against parental DENV-2 NGB
DENV-1 strain Hawaii = DENV-1 strain Hawaii (dengue type 1 virus); assay: cell-based or functional assay
[23] = molecular target: T8, Langat virus (LGTV) strain TP 21 (Langat virus, UniProt P29837 281-776); assay: cell-based or functional assay
T8 sequence: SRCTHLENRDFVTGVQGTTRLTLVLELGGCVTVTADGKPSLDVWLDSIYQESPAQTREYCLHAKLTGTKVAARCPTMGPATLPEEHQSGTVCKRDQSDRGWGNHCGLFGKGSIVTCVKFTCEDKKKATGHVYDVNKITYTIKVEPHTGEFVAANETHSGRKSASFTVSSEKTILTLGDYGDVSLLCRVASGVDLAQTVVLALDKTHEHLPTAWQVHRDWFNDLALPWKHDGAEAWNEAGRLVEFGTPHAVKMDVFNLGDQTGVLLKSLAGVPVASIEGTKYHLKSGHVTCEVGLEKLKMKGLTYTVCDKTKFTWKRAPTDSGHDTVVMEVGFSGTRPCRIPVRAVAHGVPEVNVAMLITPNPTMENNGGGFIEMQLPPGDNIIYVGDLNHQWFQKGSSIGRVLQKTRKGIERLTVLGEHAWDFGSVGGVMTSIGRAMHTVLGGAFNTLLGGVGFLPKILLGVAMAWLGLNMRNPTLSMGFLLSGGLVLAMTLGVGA

[24] = molecular target: DENV-2 New Guinea B (NGB) parent virus (dengue type 2 virus); assay: cell-based or functional assay
[25] = molecular target: T4, dengue type 3 virus (DENV-3), strain …; assay: cell-based or functional assay; remark: listed apart in the source
[26] = molecular target: Japanese encephalitis virus (JEV) vaccine strain SA14-14-2 (Japanese encephalitis virus); assay: cell-based or functional assay
[27] = molecular target: T1, dengue type 4 virus (DENV-4), strain …
[28] = molecular target: T2, dengue type 1 virus (DENV-1), Western …
[29] = molecular target: T3, dengue type 2 virus (DENV-2), prototype …
[30] = molecular target: T4, dengue type 3 virus (DENV-3), strain …
[31] = molecular target: T1, dengue type 4 virus (DENV-4), strain …; assay: cell-based or functional assay; remark: listed apart in the source
DENV-4 prM glycoprotein = DENV-4 prM glycoprotein (dengue type 4 virus, UniProt P09866 114-279); assay: radioimmunoprecipitation of prM expressed alone by recombinant vaccinia virus
[32] = molecular target: T1, dengue type 4 virus (DENV-4), strain …; assay: ELISA, virion-coated plate, Fab from ~300 µg/ml
[33] = molecular target: T2, dengue type 1 virus (DENV-1), Western …; assay: ELISA, virion-coated plate, Fab from ~300 µg/ml
[34] = molecular target: T3, dengue type 2 virus (DENV-2), prototype …; assay: ELISA, virion-coated plate, Fab from ~300 µg/ml
[35] = molecular target: T4, dengue type 3 virus (DENV-3), strain …; assay: ELISA, virion-coated plate, Fab from ~300 µg/ml
DENV-4 E glycoprotein [36] = molecular target: T9, DENV-4 E glycoprotein (dengue type 4 virus, UniProt P09866 280-774); assay: radioimmunoprecipitation of E expressed alone by recombinant vaccinia virus
T9 construct: also called vDENV-4 E product

DENV-4 E glycoprotein [37] = molecular target: T9, DENV-4 E glycoprotein; assay: radioimmunoprecipitation

B1: chimpanzee Fab 1A5 (Fab, V domains shown)
VH: EVQLLESGGGLVQPGGSRRLSCAASGFTISDNVMHWVRQAPGKGLEWVALIYSADTTHYADSVKGRFTISRDNSKNTLYLQMDSLRPEDTAVYYCAREYCTGDTCFAHFDYWGQGTLVSVSS
VL: ELQMTQSPSSVSASVGDTVTIACRASQSITNYLSWYQQKPGKAPKLLIYHASTLQSGIPSRFSGSGSGTDFTLTISSLQPDDFATYYCHYGYGTHTFGQGTKLEIKR
[1]
  PRNT50 titer: 4.23 µg/mL
[2]
  PRNT50 titer: 0.49 µg/mL
[3]
  PRNT50 titer: 0.77 µg/mL
[4]
  PRNT50 titer: 3.49 µg/mL
[5]
  PRNT50 titer: 12 µg/mL
[6]
  PRNT50 titer: 4.3 µg/mL
[7]
  PRNT50 titer: 0.89 µg/mL
[8]
  PRNT50 titer: > 70 µg/mL
[9]
  PRNT50 titer: > 70 µg/mL
[10]
  PRNT50 titer: ~50 µg/mL
WNV/DENV-4 chimera
  PRNT50 titer: 4.8 µg/mL
[11]
  PRNT50 titer: 0.64 µg/mL
[12]
  PRNT50 titer: 31.7 µg/mL
[13]
  Kd: 0.65 nM
[14]
  Kd: 3.07 nM
[15]
  ELISA titer of Fab binding: 3.8 log10 of reciprocal dilution
[16]
  ELISA titer of Fab binding: 4.1 log10 of reciprocal dilution
[17]
  ELISA titer of Fab binding: 3.8 log10 of reciprocal dilution
[18]
  ELISA titer of Fab binding: 3.8 log10 of reciprocal dilution
[19]
  Kd: 0.75 nM
[20]
  Kd: 37.8 nM
[21]
  Affinity Reduction (fold): 1.6 fold
[22]
  Affinity Reduction (fold): 80.3 fold

B2: humanized IgG1 1A5 (antibody, V domains shown)
VH: B1 VH
VL: B1 VL
[6]
  PRNT50 titer: 4.3 µg/mL
DENV-1 strain Hawaii
  PRNT50 titer: 0.48 µg/mL
[23]
  PRNT50 titer: 28 µg/mL
[24]
  PRNT50 titer: 0.95 µg/mL
WNV/DENV-4 chimera
  PRNT50 titer: ~3.8 µg/mL
[25]
  PRNT50 titer: 3.2 µg/mL
[26]
  PRNT50 titer: 21 µg/mL
[27]
  Kd: 0.82 nM
[28]
  Kd: 0.5 nM
[29]
  Kd: 0.6 nM
[30]
  Kd: 0.67 nM

B3: chimpanzee Fab 7G4 (Fab, V domains shown)
VH: EVQLLESGGGLVQPGGSLTLSCAASGFTFSSYWMHWVRQAPGKGPEWVALIKKDGSEKYYAESVKGRFTISRDNAKNSLYLQMNSLRAEDTAVYYCTRRITTLTVISDAFDIWGQGTMVTVSS
VL: ELTQSPSTLSASVGDRVTITCRASQGISSWLAWYQQKPGKAPKFLIYKASSLESGVPSRFSGSGSGTEFTLTISSLQPDDFATYYCQQYGSYPLTFGPGTKVDIKR
[31]
  PRNT50 titer: 121 µg/mL
DENV-4 prM glycoprotein
  binding result: no binding
[32]
  ELISA titer of Fab binding: 4.01 log10 of reciprocal dilution
[33]
  ELISA titer of Fab binding: 4.01 log10 of reciprocal dilution
[34]
  ELISA titer of Fab binding: 4.01 log10 of reciprocal dilution
[35]
  ELISA titer of Fab binding: 4.01 log10 of reciprocal dilution

B4: chimpanzee Fab 3C1 (Fab, V domains shown)
VH: EVQLLESGAEVKKPGGSVKVSCKVSGGTLSSYGISWVRQAPGQGPEWMGVIIPIRGTANYAQKFQGRVTYTADESTSTVYMELSSLRSEDTAVYYCATGRRGRYPTGSFDYWGQGALVTVSS
VL: ELQMTQSPSTLSASVGDRVTVTCRASEDLNKWLAWYQQKPGKAPKLLIYKASSLESGVPSRFSGSGSGTEFTLTISSLQPDDFATYYCQQYQSYPYTFGPGTKLEIKR
[31]
  PRNT50 titer: > 200 µg/mL
[32]
  ELISA titer of Fab binding: 3.71 log10 of reciprocal dilution
[33]
  ELISA titer of Fab binding: 1.3 log10 of reciprocal dilution
[34]
  ELISA titer of Fab binding: 3.11 log10 of reciprocal dilution
[35]
  ELISA titer of Fab binding: 1.3 log10 of reciprocal dilution
DENV-4 E glycoprotein [36]
  binding result: no binding

B5: chimpanzee Fab 5A7 (Fab, V domains shown)
VH: EVQLLESGGGLVQPGGSLRLSCAASGVTFSSYWMHWVRQAPGKGLEWVSRINSDGSSTNYADSVEGRFTISRDNAKNTLYLQMNSLRAEDTAVYYCSRGGLWDWSPRRIEETKTPFDYWGQGTLVTVSS
VL: ELTQGPATLSLSPGERATLSCRAGQSLDSSLLSWYQQKPGQAPRLLMYDASTRAPGVPARFSGSGSGTDFTLTISSLQPEDFAVYYCQQHYNLPRTFGQGTKLEIKR
[31]
  PRNT50 titer: > 200 µg/mL
[32]
  ELISA titer of Fab binding: 3.41 log10 of reciprocal dilution
[33]
  ELISA titer of Fab binding: 2.51 log10 of reciprocal dilution
[34]
  ELISA titer of Fab binding: 2.51 log10 of reciprocal dilution
[35]
  ELISA titer of Fab binding: 2.51 log10 of reciprocal dilution
DENV-4 E glycoprotein [37]
  binding result: no binding

B6: chimpanzee Fab 3E4 (Fab, V domains shown)
VH: VQLLEQSGAEVKKPGGSVKVSCKVSGGTFSRNPISWVRQAPGQGLEWMSVIVPIVGTTKHAQKFQGRVTITADESTSTAYMELSSLRSEDTAVYYCATYRRYADVSSYSEYWGQGTLVTVSS
VL: ELTQSPLSLPVTLGQPASISCRSSQNLVHSDGNTYLSWIQQRPGQPPRLLIYKVSNRDSGVPDRFSGSGAGTDFTLKITRVEAEDVGLYYCVQGVQFPITFGQGTKLEIKR
[1]
  PRNT50 titer: 40.5 µg/mL
[2]
  PRNT50 titer: 42.7 µg/mL
[3]
  PRNT50 titer: > 100 µg/mL
[4]
  PRNT50 titer: > 100 µg/mL
[31]
  PRNT50 titer: 91 µg/mL
DENV-4 prM glycoprotein
  binding result: no binding
[15]
  ELISA titer of Fab binding: 3.8 log10 of reciprocal dilution
[16]
  ELISA titer of Fab binding: 4 log10 of reciprocal dilution
[17]
  ELISA titer of Fab binding: 3.8 log10 of reciprocal dilution
[18]
  ELISA titer of Fab binding: 3.6 log10 of reciprocal dilution
[32]
  ELISA titer of Fab binding: 4.61 log10 of reciprocal dilution
[33]
  ELISA titer of Fab binding: 4.61 log10 of reciprocal dilution
[34]
  ELISA titer of Fab binding: 4.31 log10 of reciprocal dilution
[35]
  ELISA titer of Fab binding: 4.61 log10 of reciprocal dilution
